Laboratory results taken from PMC11574045, “A cofactor-induced repressive type of transcription factor condensation can be induced by synthetic peptides to suppress tumorigenesis” (The EMBO Journal, 2024).

System: HEK293FT cells transfected with TF library
Test: Screening of TF condensates based on fluorescent puncta
Type: cell-based
Conditions: Figure 1B numerical data; TF library screen, one value per transcriptional factor
Method: TF plasmids were automatically added to black-walled 384-well plates at 80 ng per well to reach a final concentration of 1.6 μg/ml. Polyethylenimine (PEI, Sigma) was then added to the plasmid-loaded plates at 240 ng per well (4.8 μg/ml). Subsequently, HEK293FT cells were seeded into the plate at 2000 cells per well. After 60 h, cells were cultured in medium with or without glucose for 12 h, and then fixed with 4% paraformaldehyde (PFA) at room temperature for 30 min. After three washes with PBS, fixed cells were permeabilized with 0.05% Triton X-100 for 15 min. Thereafter, cells were blocked with 5% BSA for 1 h, and then incubated overnight with anti-Flag (Sigma F3165, 1:200) and anti-GAL4 (Abbkine ABP57232, 1:200) primary antibodies at 4 °C. The cells were then gently washed with PBS, followed by being incubated with Alexa Fluor Plus 488 goat anti-mouse IgG secondary antibody (Thermo A32723, 1:400) or Alexa Fluor Plus 488 goat anti-rabbit IgG secondary antibody (Thermo A32731, 1:400) for 1 h. The plates were kept at 4 °C in the dark before being analyzed using an Opera System (Perkin Elmer). Fifty random fields per well were scanned and analyzed using the Columbus Plus Image Data Storage and Analysis System (Perkin Elmer).

Molecule	Z score of condensed fraction
FOSL1 (protein, UniProt P15407 1-271, looked up) Fos-related antigen 1: MFRDFGEPGPSSGNGGGYGGPAQPPAAAQAAQQKFHLVPSINTMSGSQELQWMVQPHFLGPSSYPRPLTYPQYSPPQPRPGVIRALGPPPGVRRRPCEQISPEEEERRRVRRERNKLAAAKCRNRRKELTDFLQAETDKLEDEKSGLQREIEELQKQKERLELVLEAHRPICKIPEGAKEGDTGSTSGTSSPPAPCRPVPCISLSPGPVLEPEALHTPTLMTTPSLTPFTPSLVFTYPSTPEPCASAHRKSSSSSGDPSSDPLGSPTLLAL	-0.3444
ETV7 (protein, UniProt Q9Y603 1-341, looked up) Transcription factor ETV7: MQEGELAISPISPVAAMPPLGTHVQARCEAQINLLGEGGICKLPGRLRIQPALWSREDVLHWLRWAEQEYSLPCTAEHGFEMNGRALCILTKDDFRHRAPSSGDVLYELLQYIKTQRRALVCGPFFGGIFRLKTPTQHSPVPPEEVTGPSQMDTRRGHLLQPPDPGLTSNFGHLDDPGLARWTPGKEESLNLCHCAELGCRTQGVCSFPAMPQAPIDGRIADCRLLWDYVYQLLLDTRYEPYIKWEDKDAKIFRVVDPNGLARLWGNHKNRVNMTYEKMSRALRHYYKLNIIKKEPGQKLLFRFLKTPGKMVQDKHSHLEPLESQEQDRIEFKDKRPEISP	-0.026
FHL2 (protein, UniProt Q14192 1-279, looked up) Four and a half LIM domains …: MTERFDCHHCNESLFGKKYILREESPYCVVCFETLFANTCEECGKPIGCDCKDLSYKDRHWHEACFHCSQCRNSLVDKPFAAKEDQLLCTDCYSNEYSSKCQECKKTIMPGTRKMEYKGSSWHETCFICHRCQQPIGTKSFIPKDNQNFCVPCYEKQHAMQCVQCKKPITTGGVTYREQPWHKECFVCTACRKQLSGQRFTARDDFAYCLNCFCDLYAKKCAGCTNPISGLGGTKYISFEERQWHNDCFNCKKCSLSLVGRGFLTERDDILCPDCGKDI	0.8678
FERD3L (protein, UniProt Q96RJ6 1-166, looked up) Fer3-like protein: MAAYPESCVDTTVLDFVADLSLASPRRPLLCDFAPGVSLGDPALALREGRPRRMARFEEGDPEEEECEVDQGDGEEEEEEERGRGVSLLGRPKRKRVITYAQRQAANIRERKRMFNLNEAFDQLRRKVPTFAYEKRLSRIETLRLAIVYISFMTELLESCEKKESG	0.6489
ETV2 (protein, UniProt P41163 1-335, looked up) ETS translocation variant 2: MDLWNWDEASLQEVPPGDKLTGLGAEFGFYFPEVALQEDTPITPMNVEGCWKGFPELDWNPALPHEDVPFQAEPVAHPLPWSRDWTDLGCNTSDPWSCASQTPGPAPPGTSPSPFVGFEGATGQNPATSAGGVPSWSHPPAAWSTTSWDCSVGPSGATYWDNGLGGEAHEDYKMSWGGSAGSDYTTTWNTGLQDCSIPFEGHQSPAFTTPSKSNKQSDRATLTRYSKTNHRGPIQLWQFLLELLHDGARSSCIRWTGNSREFQLCDPKEVARLWGERKRKPGMNYEKLSRGLRYYYRRDIVLKSGGRKYTYRFGGRVPVLAYQDDMGHLPGAEGQ	0.6041
FOSB (protein, UniProt P53539 1-338, looked up) Protein FosB: MFQAFPGDYDSGSRCSSSPSAESQYLSSVDSFGSPPTAAASQECAGLGEMPGSFVPTVTAITTSQDLQWLVQPTLISSMAQSQGQPLASQPPVVDPYDMPGTSYSTPGMSGYSSGGASGSGGPSTSGTTSGPGPARPARARPRRPREETLTPEEEEKRRVRRERNKLAAAKCRNRRRELTDRLQAETDQLEEEKAELESEIAELQKEKERLEFVLVAHKPGCKIPYEEGPGPGPLAEVRDLPGSAPAKEDGFSWLLPPPPPPPLPFQTSQDAPPNLTASLFTHSEVQVLGDPFPVVNPSYTSSFVLTCPEVSAFAGAQRTSGSDQPSDPLNSPSLLAL	1.202
AFF3 (protein, UniProt P51826 1-1226, looked up) AF4/FMR2 family member 3: MDSFDLALLQEWDLESLCVYEPDRNALRRKERERRNQETQQDDGTFNSSYSLFSEPYKTNKGDELSNRIQNTLGNYDEMKDFLTDRSNQSHLVGVPKPGVPQTPVNKIDEHFVADSRAQNQPSSICSTTTSTPAAVPVQQSKRGTMGWQKAGHPPSDGQQRATQQGSLRTLLGDGVGRQQPRAKQVCNVEVGLQTQERPPAMAAKHSSSGHCVQNFPPSLASKPSLVQQKPTAYVRPMDGQDQAPDESPKLKSSSETSVHCTSYRGVPASKPEPARAKAKLSKFSIPKQGEESRSGETNSCVEEIIREMTWLPPLSAIQAPGKVEPTKFPFPNKDSQLVSSGHNNPKKGDAEPESPDNGTSNTSMLEDDLKLSSDEEENEQQAAQRTALRALSDSAVVQQPNCRTSVPSSKGSSSSSSSGSSSSSSDSESSSGSDSETESSSSESEGSKPPHFSSPEAEPASSNKWQLDKWLNKVNPHKPPILIQNESHGSESNQYYNPVKEDVQDCGKVPDVCQPSLREKEIKSTCKEEQRPRTANKAPGSKGVKQKSPPAAVAVAVSAAAPPPAVPCAPAENAPAPARRSAGKKPTRRTERTSAGDGANCHRPEEPAAADALGTSVVVPPEPTKTRPCGNNRASHRKELRSSVTCEKRRTRGLSRIVPKSKEFIETESSSSSSSSDSDLESEQEEYPLSKAQTVAASASSGNDQRLKEAAANGGSGPRAPVGSINARTTSDIAKELEEQFYTLVPFGRNELLSPLKDSDEIRSLWVKIDLTLLSRIPEHLPQEPGVLSAPATKDSESAPPSHTSDTPAEKALPKSKRKRKCDNEDDYREIKKSQGEKDSSSRLATSTSNTLSANHCNMNINSVAIPINKNEKMLRSPISPLSDASKHKYTSEDLTSSSRPNGNSLFTSASSSKKPKADSQLQPHGGDLTKAAHNNSENIPLHKSRPQTKPWSPGSNGHRDCKRQKLVFDDMPRSADYFMQEAKRMKHKADAMVEKFGKALNYAEAALSFIECGNAMEQGPMESKSPYTMYSETVELIRYAMRLKTHSGPNATPEDKQLAALCYRCLALLYWRMFRLKRDHAVKYSKALIDYFKNSSKAAQAPSPWGASGKSTGTPSPMSPNPSPASSVGSQGSLSNASALSPSTIVSIPQRIHQMAANHVSITNSILHSYDYWEMADNLAKENREFFNDLDLLMGPVTLHSSMEHLVQYSQQGLHWLRNSAHLS	-0.8104
EZH1 (protein, UniProt Q92800 1-747, looked up) Histone-lysine …: MEIPNPPTSKCITYWKRKVKSEYMRLRQLKRLQANMGAKALYVANFAKVQEKTQILNEEWKKLRVQPVQSMKPVSGHPFLKKCTIESIFPGFASQHMLMRSLNTVALVPIMYSWSPLQQNFMVEDETVLCNIPYMGDEVKEEDETFIEELINNYDGKVHGEEEMIPGSVLISDAVFLELVDALNQYSDEEEEGHNDTSDGKQDDSKEDLPVTRKRKRHAIEGNKKSSKKQFPNDMIFSAIASMFPENGVPDDMKERYRELTEMSDPNALPPQCTPNIDGPNAKSVQREQSLHSFHTLFCRRCFKYDCFLHPFHATPNVYKRKNKEIKIEPEPCGTDCFLLLEGAKEYAMLHNPRSKCSGRRRRRHHIVSASCSNASASAVAETKEGDSDRDTGNDWASSSSEANSRCQTPTKQKASPAPPQLCVVEAPSEPVEWTGAEESLFRVFHGTYFNNFCSIARLLGTKTCKQVFQFAVKESLILKLPTDELMNPSQKKKRKHRLWAAHCRKIQLKKDNSSTQVYNYQPCDHPDRPCDSTCPCIMTQNFCEKFCQCNPDCQNRFPGCRCKTQCNTKQCPCYLAVRECDPDLCLTCGASEHWDCKVVSCKNCSIQRGLKKHLLLAPSDVAGWGTFIKESVQKNEFISEYCGELISQDEADRRGKVYDKYMSSFLFNLNNDFVVDATRKGNKIRFANHSVNPNCYAKVVMVNGDHRIGIFAKRAIQAGEELFFDYRYSQADALKYVGIERETDVL	-2.133
ETV1 (protein, UniProt P50549 1-477, looked up) ETS translocation variant 1: MDGFYDQQVPYMVTNSQRGRNCNEKPTNVRKRKFINRDLAHDSEELFQDLSQLQETWLAEAQVPDNDEQFVPDYQAESLAFHGLPLKIKKEPHSPCSEISSACSQEQPFKFSYGEKCLYNVSAYDQKPQVGMRPSNPPTPSSTPVSPLHHASPNSTHTPKPDRAFPAHLPPSQSIPDSSYPMDHRFRRQLSEPCNSFPPLPTMPREGRPMYQRQMSEPNIPFPPQGFKQEYHDPVYEHNTMVGSAASQSFPPPLMIKQEPRDFAYDSEVPSCHSIYMRQEGFLAHPSRTEGCMFEKGPRQFYDDTCVVPEKFDGDIKQEPGMYREGPTYQRRGSLQLWQFLVALLDDPSNSHFIAWTGRGMEFKLIEPEEVARRWGIQKNRPAMNYDKLSRSLRYYYEKGIMQKVAGERYVYKFVCDPEALFSMAFPDNQRPLLKTDMERHINEEDTVPLSHFDESMAYMPEGGCCNPHPYNEGYVY	-0.2404
FLI1 (protein, UniProt Q01543 1-452, looked up) Friend leukemia integration 1 …: MDGTIKEALSVVSDDQSLFDSAYGAAAHLPKADMTASGSPDYGQPHKINPLPPQQEWINQPVRVNVKREYDHMNGSRESPVDCSVSKCSKLVGGGESNPMNYNSYMDEKNGPPPPNMTTNERRVIVPADPTLWTQEHVRQWLEWAIKEYSLMEIDTSFFQNMDGKELCKMNKEDFLRATTLYNTEVLLSHLSYLRESSLLAYNTTSHTDQSSRLSVKEDPSYDSVRRGAWGNNMNSGLNKSPPLGGAQTISKNTEQRPQPDPYQILGPTSSRLANPGSGQIQLWQFLLELLSDSANASCITWEGTNGEFKMTDPDEVARRWGERKSKPNMNYDKLSRALRYYYDKNIMTKVHGKRYAYKFDFHGIAQALQPHPTESSMYKYPSDISYMPSYHAHQQKVNFVPPHPSSMPVTSSSFFGAASQYWTSPTGGIYPNPNVPRHPNTHVPSHLGSYY	0.3939
ESRRA (protein, UniProt P11474 1-423, looked up) Steroid hormone receptor ERR1: MSSQVVGIEPLYIKAEPASPDSPKGSSETETEPPVALAPGPAPTRCLPGHKEEEDGEGAGPGEQGGGKLVLSSLPKRLCLVCGDVASGYHYGVASCEACKAFFKRTIQGSIEYSCPASNECEITKRRRKACQACRFTKCLRVGMLKEGVRLDRVRGGRQKYKRRPEVDPLPFPGPFPAGPLAVAGGPRKTAAPVNALVSHLLVVEPEKLYAMPDPAGPDGHLPAVATLCDLFDREIVVTISWAKSIPGFSSLSLSDQMSVLQSVWMEVLVLGVAQRSLPLQDELAFAEDLVLDEEGARAAGLGELGAALLQLVRRLQALRLEREEYVLLKALALANSDSVHIEDAEAVEQLREALHEALLEYEAGRAGPGGGAERRRAGRLLLTLPLLRQTAGKVLAHFYGVKLEGKVPMHKLFLEMLEAMMD	0.7125
